From PMC10786891, “Massively parallel profiling of RNA-targeting CRISPR-Cas13d”

T1: EsCas13d, nuclease-dead (Eubacterium siraeum, UniProt B0MS50, R295A;H300A;R849A;H854A)
T1 sequence: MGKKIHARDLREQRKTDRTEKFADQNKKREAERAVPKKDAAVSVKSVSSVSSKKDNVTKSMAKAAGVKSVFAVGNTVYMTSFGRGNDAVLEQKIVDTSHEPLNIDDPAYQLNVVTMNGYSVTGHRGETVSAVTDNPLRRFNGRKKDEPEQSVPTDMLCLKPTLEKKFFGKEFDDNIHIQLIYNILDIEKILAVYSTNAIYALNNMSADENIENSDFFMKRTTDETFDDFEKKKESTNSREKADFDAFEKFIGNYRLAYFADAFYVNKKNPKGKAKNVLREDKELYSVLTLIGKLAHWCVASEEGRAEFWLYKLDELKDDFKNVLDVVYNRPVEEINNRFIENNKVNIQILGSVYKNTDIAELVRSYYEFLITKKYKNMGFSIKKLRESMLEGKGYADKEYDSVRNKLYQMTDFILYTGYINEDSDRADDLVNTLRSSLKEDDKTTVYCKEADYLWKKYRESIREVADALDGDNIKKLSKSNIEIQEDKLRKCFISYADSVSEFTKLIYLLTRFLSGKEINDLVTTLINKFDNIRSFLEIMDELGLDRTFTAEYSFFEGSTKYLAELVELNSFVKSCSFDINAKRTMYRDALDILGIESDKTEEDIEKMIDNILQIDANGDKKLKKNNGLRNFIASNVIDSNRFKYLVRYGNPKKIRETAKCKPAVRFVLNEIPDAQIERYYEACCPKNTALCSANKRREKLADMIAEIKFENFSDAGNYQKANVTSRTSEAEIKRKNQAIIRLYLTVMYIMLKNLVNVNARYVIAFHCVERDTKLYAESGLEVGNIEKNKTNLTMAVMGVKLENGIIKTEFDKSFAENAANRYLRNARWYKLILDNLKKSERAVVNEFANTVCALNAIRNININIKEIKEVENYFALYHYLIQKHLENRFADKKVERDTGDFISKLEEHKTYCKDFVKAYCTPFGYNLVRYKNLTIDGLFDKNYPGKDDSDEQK

B1: target 2 MT 5'PFS GCA 3'PFS UGU (mixed)
RNA 1: CACCCGUGCAAAAUUGCAGGGGUCUAAAACCUUCUCCAAAUUGUUUCAUCCU
RNA 2: GGGAAUGGAUCCACAUCUACGAAUUCGCAAGGAUGAAACAAUUUGGAGAAGUGUAGAUCGGAAGAGCACACGU
B2: target 2 MT 5'PFS UAU 3'PFS AGA (mixed)
RNA 1: CACCCGUGCAAAAUUGCAGGGGUCUAAAACCUUCUCCAAAUUGUUUCAUCCU
RNA 2: GGGAAUGGAUCCACAUCUACGAAUUCUAUAGGAUGAAACAAUUUGGAGAAGAGAAGAUCGGAAGAGCACACGU
B3: target 2 MT 5'PFS UAU 3'PFS AGG (mixed)
RNA 1: CACCCGUGCAAAAUUGCAGGGGUCUAAAACCUUCUCCAAAUUGUUUCAUCCU
RNA 2: GGGAAUGGAUCCACAUCUACGAAUUCUAUAGGAUGAAACAAUUUGGAGAAGAGGAGAUCGGAAGAGCACACGU
B4: target 2 MT 5'PFS CUU 3'PFS UGU (mixed)
RNA 1: CACCCGUGCAAAAUUGCAGGGGUCUAAAACCUUCUCCAAAUUGUUUCAUCCU
RNA 2: GGGAAUGGAUCCACAUCUACGAAUUCCUUAGGAUGAAACAAUUUGGAGAAGUGUAGAUCGGAAGAGCACACGU
B5: target 2 MT 5'PFS UAU 3'PFS CGU (mixed)
RNA 1: CACCCGUGCAAAAUUGCAGGGGUCUAAAACCUUCUCCAAAUUGUUUCAUCCU
RNA 2: GGGAAUGGAUCCACAUCUACGAAUUCUAUAGGAUGAAACAAUUUGGAGAAGCGUAGAUCGGAAGAGCACACGU
B6: target 2 MT 5'PFS UAA 3'PFS ACG (mixed)
RNA 1: CACCCGUGCAAAAUUGCAGGGGUCUAAAACCUUCUCCAAAUUGUUUCAUCCU
RNA 2: GGGAAUGGAUCCACAUCUACGAAUUCUAAAGGAUGAAACAAUUUGGAGAAGACGAGAUCGGAAGAGCACACGU
B7: target 2 MT 5'PFS GCA 3'PFS UGA (mixed)
RNA 1: CACCCGUGCAAAAUUGCAGGGGUCUAAAACCUUCUCCAAAUUGUUUCAUCCU
RNA 2: GGGAAUGGAUCCACAUCUACGAAUUCGCAAGGAUGAAACAAUUUGGAGAAGUGAAGAUCGGAAGAGCACACGU
B8: target 2 MT 5'PFS UAU 3'PFS AGU (mixed)
RNA 1: CACCCGUGCAAAAUUGCAGGGGUCUAAAACCUUCUCCAAAUUGUUUCAUCCU
RNA 2: GGGAAUGGAUCCACAUCUACGAAUUCUAUAGGAUGAAACAAUUUGGAGAAGAGUAGAUCGGAAGAGCACACGU
B9: target 2 MT 5'PFS UAU 3'PFS CGA (mixed)
RNA 1: CACCCGUGCAAAAUUGCAGGGGUCUAAAACCUUCUCCAAAUUGUUUCAUCCU
RNA 2: GGGAAUGGAUCCACAUCUACGAAUUCUAUAGGAUGAAACAAUUUGGAGAAGCGAAGAUCGGAAGAGCACACGU
B10: target 2 MT 5'PFS GCA 3'PFS UGC (mixed)
RNA 1: CACCCGUGCAAAAUUGCAGGGGUCUAAAACCUUCUCCAAAUUGUUUCAUCCU
RNA 2: GGGAAUGGAUCCACAUCUACGAAUUCGCAAGGAUGAAACAAUUUGGAGAAGUGCAGAUCGGAAGAGCACACGU
B11: target 2 MT 5'PFS GUG 3'PFS CAU (mixed)
RNA 1: CACCCGUGCAAAAUUGCAGGGGUCUAAAACCUUCUCCAAAUUGUUUCAUCCU
RNA 2: GGGAAUGGAUCCACAUCUACGAAUUCGUGAGGAUGAAACAAUUUGGAGAAGCAUAGAUCGGAAGAGCACACGU
B12: target 2 MT 5'PFS UAU 3'PFS AGC (mixed)
RNA 1: CACCCGUGCAAAAUUGCAGGGGUCUAAAACCUUCUCCAAAUUGUUUCAUCCU
RNA 2: GGGAAUGGAUCCACAUCUACGAAUUCUAUAGGAUGAAACAAUUUGGAGAAGAGCAGAUCGGAAGAGCACACGU
B13: target 2 MT 5'PFS ACU 3'PFS CAA (mixed)
RNA 1: CACCCGUGCAAAAUUGCAGGGGUCUAAAACCUUCUCCAAAUUGUUUCAUCCU
RNA 2: GGGAAUGGAUCCACAUCUACGAAUUCACUAGGAUGAAACAAUUUGGAGAAGCAAAGAUCGGAAGAGCACACGU
B14: target 2 MT 5'PFS UAU 3'PFS CGG (mixed)
RNA 1: CACCCGUGCAAAAUUGCAGGGGUCUAAAACCUUCUCCAAAUUGUUUCAUCCU
RNA 2: GGGAAUGGAUCCACAUCUACGAAUUCUAUAGGAUGAAACAAUUUGGAGAAGCGGAGAUCGGAAGAGCACACGU
B15: target 2 MT 5'PFS GCC 3'PFS UUA (mixed)
RNA 1: CACCCGUGCAAAAUUGCAGGGGUCUAAAACCUUCUCCAAAUUGUUUCAUCCU
RNA 2: GGGAAUGGAUCCACAUCUACGAAUUCGCCAGGAUGAAACAAUUUGGAGAAGUUAAGAUCGGAAGAGCACACGU
B16: target 2 MT 5'PFS ACU 3'PFS CAC (mixed)
RNA 1: CACCCGUGCAAAAUUGCAGGGGUCUAAAACCUUCUCCAAAUUGUUUCAUCCU
RNA 2: GGGAAUGGAUCCACAUCUACGAAUUCACUAGGAUGAAACAAUUUGGAGAAGCACAGAUCGGAAGAGCACACGU
B17: target 2 MT 5'PFS ACG 3'PFS CGC (mixed)
RNA 1: CACCCGUGCAAAAUUGCAGGGGUCUAAAACCUUCUCCAAAUUGUUUCAUCCU
RNA 2: GGGAAUGGAUCCACAUCUACGAAUUCACGAGGAUGAAACAAUUUGGAGAAGCGCAGAUCGGAAGAGCACACGU
B18: target 2 MT 5'PFS UAA 3'PFS ACA (mixed)
RNA 1: CACCCGUGCAAAAUUGCAGGGGUCUAAAACCUUCUCCAAAUUGUUUCAUCCU
RNA 2: GGGAAUGGAUCCACAUCUACGAAUUCUAAAGGAUGAAACAAUUUGGAGAAGACAAGAUCGGAAGAGCACACGU
B19: target 2 MT 5'PFS GCC 3'PFS UUG (mixed)
RNA 1: CACCCGUGCAAAAUUGCAGGGGUCUAAAACCUUCUCCAAAUUGUUUCAUCCU
RNA 2: GGGAAUGGAUCCACAUCUACGAAUUCGCCAGGAUGAAACAAUUUGGAGAAGUUGAGAUCGGAAGAGCACACGU
B20: target 2 MT 5'PFS UAA 3'PFS ACC (mixed)
RNA 1: CACCCGUGCAAAAUUGCAGGGGUCUAAAACCUUCUCCAAAUUGUUUCAUCCU
RNA 2: GGGAAUGGAUCCACAUCUACGAAUUCUAAAGGAUGAAACAAUUUGGAGAAGACCAGAUCGGAAGAGCACACGU
B21: target 2 MT 5'PFS UAU 3'PFS CGC (mixed)
RNA 1: CACCCGUGCAAAAUUGCAGGGGUCUAAAACCUUCUCCAAAUUGUUUCAUCCU
RNA 2: GGGAAUGGAUCCACAUCUACGAAUUCUAUAGGAUGAAACAAUUUGGAGAAGCGCAGAUCGGAAGAGCACACGU
B22: target 2 MT 5'PFS GCC 3'PFS UUC (mixed)
RNA 1: CACCCGUGCAAAAUUGCAGGGGUCUAAAACCUUCUCCAAAUUGUUUCAUCCU
RNA 2: GGGAAUGGAUCCACAUCUACGAAUUCGCCAGGAUGAAACAAUUUGGAGAAGUUCAGAUCGGAAGAGCACACGU
B23: target 2 MT 5'PFS ACU 3'PFS CAG (mixed)
RNA 1: CACCCGUGCAAAAUUGCAGGGGUCUAAAACCUUCUCCAAAUUGUUUCAUCCU
RNA 2: GGGAAUGGAUCCACAUCUACGAAUUCACUAGGAUGAAACAAUUUGGAGAAGCAGAGAUCGGAAGAGCACACGU
B24: target 2 MT 5'PFS ACG 3'PFS CGA (mixed)
RNA 1: CACCCGUGCAAAAUUGCAGGGGUCUAAAACCUUCUCCAAAUUGUUUCAUCCU
RNA 2: GGGAAUGGAUCCACAUCUACGAAUUCACGAGGAUGAAACAAUUUGGAGAAGCGAAGAUCGGAAGAGCACACGU
B25: target 1 A1U,C7G (mixed)
RNA 1: CACCCGUGCAAAAAUGCAGGGGUCUAAAACUGAGCGGAUAACCUCUCUAUGG
RNA 2: GGGAAUGGAUCCACAUCUACGAAUUCGUACCAUAGAGAGGUUAUGCGCUCUCCGAGAUCGGAAGAGCACACGU
B26: target 1 insA 3' of 4,insG 3' of 4 (mixed)
RNA 1: CACCCGUGCAAAAAUGCAGGGGUCUAAAACUGAGCGGAUAACCUCUCUAUGG
RNA 2: GGGAAUGGAUCCACAUCUACGAAUUCGUACCAUAGAGAGGUUAUCCGCAGUCACCGAGAUCGGAAGAGCACACGU
B27: target 1 C6G,A18U (mixed)
RNA 1: CACCCGUGCAAAAAUGCAGGGGUCUAAAACUGAGCGGAUAACCUCUCUAUGG
RNA 2: GGGAAUGGAUCCACAUCUACGAAUUCGUACCAUUGAGAGGUUAUCGGCUCACCGAGAUCGGAAGAGCACACGU
B28: target 1 insA 3' of 21,insC 3' of 11 (mixed)
RNA 1: CACCCGUGCAAAAAUGCAGGGGUCUAAAACUGAGCGGAUAACCUCUCUAUGG
RNA 2: GGGAAUGGAUCCACAUCUACGAAUUCGUACCAAUAGAGAGGUCUAUCCGCUCACCGAGAUCGGAAGAGCACACGU

target: T1, EsCas13d, nuclease-dead; experiment: crRNA (strand 1, pre-loaded); Mg2+; 40 mM Tris-HCl pH 7.5, 150 mM NaCl, 6 mM MgCl2, 1 mM DTT, 0.1% Tween-20, 0.2 mg/ml BSA; 25 C; 10 min per concentration, then washed; details: tags: His6-TwinStrep-SUMO cleaved; N-terminal SNAP kept (SNAP-Surface 488); label: 3' end held by stalled T7 RNA polymerase

B1 and B2 are within error of each other in Kd: 25 ± 5 nM for the first, 21.1 ± 2.7 nM for the second.

First: B3
Second: B4
The Kd of the first is 6.6-fold higher: 28.1 ± 3.3 nM for the first, 4.26 ± 0.3 nM for the second.

Going from B5 to B6, the Kd falls from 15.6 ± 1.8 nM to 8.8 ± 2.1 nM (1.8-fold). The second binds more tightly here.

B7 and B8 are within error of each other in Kd: 13 ± 4 nM for the first, 15.2 ± 1.6 nM for the second.

Going from B9 to B10, the Kd falls from 27 ± 1.9 nM to 12.7 ± 2.3 nM (2.1-fold).

Going from B11 to B12, the Kd rises from 9.2 ± 0.8 nM to 21 ± 2.4 nM (2.3-fold). The first binds more tightly here.

First: B13
Second: B14
The Kd of the first is 14-fold lower: 3.7 ± 0.8 nM for the first, 52 ± 11 nM for the second.

First: B15
Second: B16
The Kd of the first is 6.1-fold higher: 25 ± 7 nM for the first, 4.1 ± 0.6 nM for the second.

B17 and B18 are within error of each other in Kd: 8.2 ± 1.1 nM for the first, 6 ± 1.2 nM for the second.

B19 and B20 are within error of each other in Kd: 15.3 ± 2.1 nM for the first, 24 ± 9 nM for the second.

First: B21
Second: B22
The Kd of the first is 2.8-fold higher: 75 ± 13 nM for the first, 27 ± 7 nM for the second. The second binds more tightly here.

Compared with B23, B24 is 1.9-fold higher in Kd: 4.5 ± 0.5 nM for the first, 8.5 ± 2.1 nM for the second.

Going from B25 to B26, the Kd falls from 9.9 ± 0.8 nM to 5.32 ± 0.26 nM (1.9-fold).

Going from B27 to B28, the Kd rises from 29 ± 4 nM to about 80 nM (2.8-fold).
